Assay results reported in the supplement of paper PMC10567573.

B1: TRIM55 (parent)
chain: FQMEKIEHGYENMNHFTVNLNREE

Variants of: B1
Test: protein stability index of a GFP-peptide fusion (GPS, HEK-293T) (PSI 1-6); higher = more stable
Conditions: c terminus: a fixed tail appended
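Further: lentivirally expressed fusions sorted by FACS into six bins by GFP to DsRed ratio, PSI derived from sequencing read proportions per bin multiplied by bin number.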

Protein stability index: each site, then its substitutions
N19: Y 1.86 | C 2.65 | H 2.24 | L 2.22 | P 3.4 | M 2.27 | K 2.47 | S 2.16 | W 2.09 | E 3.28 | Q 2.68 | T 2.27 | A 3.17 | F 2.29 | G 2.72
N21: K 2.87 | D 3.65 | I 2.59 | V 2.4 | Q 3.07 | P 2.94 | F 2.07 | C 1.82 | H 2.15 | L 2.2 | T 2.65 | M 2.1 | S 3.08 | R 2.51 | A 2.89 | W 1.13 | Y 2.5
G9: L 2.94 | M 2.45 | Q 3.05 | R 2.91 | Y 2.11 | D 3.9 | V 3.03 | K 2.81 | W 3.05 | A 3.63 | S 3.21 | E 3.38 | C 2.33
V18: Q 4.15 | S 3.77 | N 3.52 | A 3.24 | M 3.49 | P 2.11 | E 3.61 | G 3.74 | K 3.27 | Y 2.39 | W 1.69 | H 3.66 | F 3.21 | T 3.86
H8: D 2.71 | P 2.77 | R 2.74 | Q 2.89 | Y 3.03 | M 2.51 | K 2.84 | S 3.02 | L 2.44 | G 2.37 | W 2 | C 2.65 | V 3.03 | I 2.21 | A 2.77
M13: C 2.93 | P 3.51 | H 3.13 | I 2.52 | L 2.61 | A 3.23 | Y 2.38 | E 3.67 | W 2.12 | N 3.81 | V 2.46 | S 3.04 | R 2.68 | Q 3.33
E11: W 2.35 | P 2.07 | R 2.15 | V 1.97 | Q 2.18 | T 2.42 | K 2.42 | F 2.04 | N 2.16 | A 1.82 | S 2.59 | I 2.31 | C 1.56 | G 2.14 | L 1.81
E7: I 2.42 | F 1.44 | H 2.66 | C 2.42 | R 2.05 | S 2.34 | W 2.65 | Q 2.73 | M 2.46 | T 2.27 | N 2.3 | Y 2.1 | P 2.6 | D 2.63
Q2: K 3.49 | Y 2.52 | I 2.06 | P 3.86 | D 4.1 | F 2.69 | A 3.14 | S 3.98 | E 4.49 | H 2.28 | T 3.35 | R 3.07
E23: K 2.26 | G 2.28 | P 2.29 | T 1.92 | V 2.62 | R 1.88 | H 1.77 | M 2.27 | D 3.09 | C 1.67 | Y 2.23 | Q 2.39 | I 1.64 | L 2.17 | N 2.87
T17: I 2.06 | G 2.86 | M 2.77 | W 1.93 | S 3.03 | A 2.59 | Q 3.75 | F 1.74 | P 3.7 | N 3.76 | D 4.07 | K 3.31 | H 3.4 | E 4.27 | V 2.25
M3: E 5.07 | D 4.53 | F 2.86 | G 3.62 | A 2.57 | R 2.66 | V 2.8 | L 2.82 | Q 3.41 | S 2.88 | Y 3.06 | I 2.82 | K 2.68
R22: K 3.75 | L 1.96 | S 3 | C 3.09 | H 2.64 | N 3.57 | P 2.99 | Y 2.31 | A 2.73 | E 3.77 | D 3.32
F16: M 3.87 | W 1.96 | H 4.09 | T 4.36 | L 4.21 | E 4.5 | V 4.01 | G 4.23 | Y 3.29 | Q 4.23 | P 4.4 | A 4.17 | C 4.06 | D 4.71
F1: R 4.45 | P 4.65 | W 3.78 | E 5.1 | T 4.67 | S 4.48 | D 4.61 | K 4.17 | N 5.02 | I 4.23 | Y 3.3 | C 3.72 | L 4.05 | Q 4.85
E24: H 2.43 | A 2.27 | R 3.3 | C 2.4 | Q 3 | W 2.1 | P 2.37 | N 2.33 | S 2.06 | D 2.77 | T 2.12 | G 1.97
N14: K 2.99 | A 3.17 | V 2.15 | P 2.79 | L 2.29 | D 3.45 | H 1.69 | M 2.29 | F 2.53 | G 3.21 | I 1.98 | Q 3.11 | Y 3.78 | E 4.16 | R 2.86 | S 2.68
I6: E 4.13 | T 2.87 | M 2.84 | F 2.15 | D 3.25 | A 3.27 | C 2.64 | W 2.06 | Y 2.97 | V 3 | G 2.66 | R 2.6 | Q 3.32
Y10: G 3.31 | P 3.63 | Q 3.37 | N 3.27 | A 3.55 | M 3.31 | T 3.1 | H 2.94 | E 3.74 | F 3.02 | R 3.18
L20: A 3.2 | H 3.23 | C 2.33 | S 3.2 | P 2.88 | T 2.7 | V 1.91 | E 3.53 | G 3.43 | Q 3.33 | K 3.04 | I 2.64 | W 2.35 | F 2.71 | R 3.01
N12: I 1.94 | M 1.99 | A 2.19 | S 2.3 | D 3.65 | C 2.06 | V 2.04 | H 2.38 | P 2.37 | L 2.14 | R 2.34 | T 2.76 | K 2.44 | Q 2.51
K5: P 3.55 | M 2.83 | H 2.61 | Y 2.16 | C 3.14 | T 3.08 | W 2.41 | G 2.93 | N 3.54 | V 2.49 | I 2.24 | Q 3.51 | E 4.2
H15: N 3.77 | T 2.76 | Y 1.82 | L 1.8 | M 1.95 | F 2.14 | S 3.14 | Q 3.57 | G 3.72 | C 2.22 | V 1.76 | W 1.98 | D 3.97 | P 1.5 | A 2.1
E4: N 2.64 | K 2.37 | H 2.66 | Q 2.42 | S 1.9 | P 2.58 | M 1.73 | W 1.94 | Y 2.1 | L 2.43 | V 1.8 | I 2.24 | A 2.5 | F 1.58
